Test results: US9090686B2, “Antibodies for the treatment of HIV” (Pierre Fabre Medicament, priority 2009, dated 2015)
Each block holds one molecule with its values, some of them ahead of it.

Key:
[1] = tested on: HIV-1 primary isolate 89.6 (dual X4/R5 virus); test: Neutralization assay, multiple rounds of replication on primary PBMC, isolate 89.6; format: cell-based; details: single agent; 90% decrease of viral titer, multiple rounds, day 7 p24 ELISA
Description: This assay that combines serial dilutions of c515H7 Mab or Maraviroc or combination of both with serial dilutions of virus, analyzes multiple rounds of infection on PBMC (peripheral blood mononuclear cells). Briefly, quadruplicate 25-μl aliquots of serial dilutions (twofold) of c515H7 Mabs or Maraviroc or combination of both were each incubated with 25 μl of serial dilutions of virus in prehydrated 96-well filter plates (1.25-μm pore size, Durapor Dv; Millipore, Molsheim, France). A control titration of the virus (25 μl of RPMI replacing the diluted c515H7 Mabs or Maraviroc) was performed on the same plate as the titrations in the presence of dilutions of the c515H7 Mabs or Maraviroc or combination of both. After 1 h at 37° C., 25 μl of PHA-stimulated PBMC at a concentration of 4×10^6 cells/ml (pool of PHA activated PBMC from five healthy donors) was added to achieve a 75-μl final culture volume of RPMI, 10% fetal calf serum (FCS), and 20 IU of interleukin-2 (IL-2) per ml (R&D System). After 24 h at 37° C., 100 μl of the same culture medium was added. Two washings (200 μl of RPMI each) were performed by filtration on day 4 to remove the c515H7 Mabs and Maraviroc, and 200 μl of fresh culture medium was added. On day 7, the presence of p24 in the culture supernatants was measured by ELISA and compared to that of the negative controls (cultures infected with dilutions of virus and maintained in the presence of 10^−6 M zidovudine [AZT]) to determine positive wells. […]
This assay that combines serial dilutions of hz515H7 Mab or Maraviroc or combination of both with serial dilutions of virus, analyzes multiple rounds of infection on PBMC (peripheral blood mononuclear cells). […] On day 7, the presence of p24 in the culture supernatants was measured by ELISA and compared to that of the negative controls (cultures infected with dilutions of virus and maintained in the presence of 10^−6 M zidovudine [AZT]) to determine positive wells. […]

[2] = target: T1, CXCR4 homodimer (Homo sapiens, UniProt P61073); test: BRET on HEK293 cells expressing CXCR4/Rluc+CXCR4/YFP; format: cell-based
T1 construct: expressed in transfected cells; host or cells: HEK293, transient transfection
Excerpt: This functional assay allows to evaluate the conformational changes induced upon SDF-1 and/or 515H7 Mab binding to CXCR4 receptor at the level of CXCR4 homodimer.
(§1) Expression vectors for the investigated interaction partners were constructed as fusion proteins with the corresponding dye (Renilla reniformis luciferase, Rluc and Yellow fluorescent protein, YFP) by applying conventional molecular biology techniques. Two days prior performing BRET experiments, HEK293 cells were transiently transfected with expression vectors coding for the corresponding BRET partners: [CXCR4/Rluc+CXCR4/YFP] to study CXCR4 homodimerization. The day after, cells were distributed in poly-lysine pre-coated white 96 MW plates in complete culture medium [DMEM supplemented with 10% FBS]. Cells were first cultivated at 37° C. with CO2 5% in order to allow cell attachment to the plate. Cells were then starved with 200 μl DMEM/well overnight Immediately prior to the BRET experiment, DMEM was removed and cells were quickly washed with PBS. Cells were then incubated in PBS in the presence or absence of antibody, 10 min at 37° C. prior to the addition of coelenterazine H 5 μM with or without SDF-1 300 nM in a final volume of 50 μl. After incubation for further 10 minutes at 37° C., light-emission acquisition at 485 nm and 530 nm was initiated using the Mithras LB940 multilabel reader (Berthold) (1 s/wavelength/well repeated 15 times at room temperature).
(§2) Calculation of BRET ratio was performed as previously described (Angers et al., 2000): [(emission530 nm)−(emission485 nm)×Cf]/(emission485 nm), where Cf=(emission530 nm)/(emission485 nm) for cells expressing the Rluc fusion protein alone under the same experimental conditions. […] For sake of readability, results are expressed in mi11iBRET units (mBU); mBU corresponds to the BRET ratio multiplied by 1000.
This functional assay allows to evaluate the conformational changes induced upon SDF-1 and/or c515H7 Mab binding to CXCR4 receptor at the level of CXCR4 homodimer.
as §1, with “Cells were then incubated in PBS in the presence or absence of antibody, 10 min at 37° C. prior to the addition of coelenterazine H 5 μM with or without SDF-1 300 nM in a final volume of 50 μl.” left out
as §2, with “milliBRET” for “mi11iBRET”, “1000. […]” for “1000.”

[3] = target: T2, human CXCR4 (Homo sapiens, UniProt P61073); test: SDF-1-induced calcium release in CHO-CXCR4 cells; format: cell-based; parameters: expressed in transfected cells; details: SDF-1 100 nM, recombinant CHO/CXCR4, at about 40 sec.
Excerpt: This functional assay was designed to monitor CXCR4 receptor signaling via stimulation of the phospholipase C pathway, inducing calcium liberation from intracellular stores from the endoplasmic reticulum.
CHO-K1 cells, stably and constitutively expressing human CXCR4 receptor were obtained upon transfection of naïve CHO-K1 cells (ATCC CCL-61) with a mammalian expression vector carrying the whole coding sequence of human CXCR4 receptor (RefSeq NM_003467). Cells were propagated in complete culture medium [DMEM-Ham's F12 supplemented with 5% fetal calf serum (FCS) and 500 μg/ml of geneticin]. Cells were plated in black 96MW plates at a density of 100,000 cells/well in appropriate culture medium. Cells were starved overnight before conducting the experiments. Cells are loaded with the fluorescent calcium dye (Fluo-4 No Wash, Invitrogen US) in loading buffer [HBSS 1×, HEPES 20 mM, Probenicid acid 25 mM] for 30 min. at 37° C. followed by 30 min. at 25° C. Stimulation by SDF-1 was performed by direct injection into each well. For antagonism experiments, 10 μl of Mab solution are added directly into the loading buffer at least 10 min. before SDF-1. Kinetic fluorescence measurements are performed on a multi-mode fluorescence microplate reader Mithras LB940 (Berthold) using the following settings: excitation at 485 nm, emission at 535 nm, excitation energy at 10000 arbitrary units. Fluorescence in each well is recorded during 0.1 second every second and for a time period of 20 sec. prior SDF-1 injection (basal signal). Then 20 μl of SDF-1 are injected and data recording follows for a time period of 2 min. Each experimental condition is performed in duplicate. Values for each well are first corrected by subtracting the basal fluorescence and the fluorescence emitted by a control well without cells. Relative data are expressed as a percentage of the maximal stimulation obtained by SDF-1 (100 nM).

[4] = target: T2, human CXCR4; test: Cross blocking of biotinylated murine 515H7 on CXCR4 transfected NIH3T3 cells, flow cytometry; format: binding; parameters: expressed in transfected cells; host or cells: NIH3T3 (mouse fibroblasts)
Description: FIG. 19: Cross blocking of the biotinylated murine antibody 515H7 by the chimeric 515H7 and different variants of the humanized 515H7. The activity of the humanized variants of 515H7 (hz515H7) to cross block the parental murine antibody 515H7 was evaluated by flow cytometry using CXCR4 transfected NIH3T3 cells. The activity of the humanized variants was compared to the chimeric 515H7.
Binding of humanized variants of 515H7 was determined on a NIH3T3 cell line stably transfected with human CXCR4. The binding activity was evaluated by a competition assay with the biotinylated mouse antibody. In a second attempt, humanized antibodies were evaluated for their ability to inhibit binding of biotinylated SDF-1 to RAMOS cells. RAMOS cells were chosen because of their high expression of CXCR4 and low expression of CXCR7 and SDF-1.
In a first series of experiments, the anti-CXCR4 binding activities of the three first humanized variants were analysed. The VH variant 1 (VH1) was combined with the murine VL and these constructs were evaluated in their capacity to inhibit the binding of a biotinylated murine 515H7 parental antibody. The amino acid sequence of the variable domain of VH1 comprises the SEQ ID No. 90 whereas the nucleotide sequence comprises the SEQ ID No. 91. […]

T2 sequence (P61073 whole entry): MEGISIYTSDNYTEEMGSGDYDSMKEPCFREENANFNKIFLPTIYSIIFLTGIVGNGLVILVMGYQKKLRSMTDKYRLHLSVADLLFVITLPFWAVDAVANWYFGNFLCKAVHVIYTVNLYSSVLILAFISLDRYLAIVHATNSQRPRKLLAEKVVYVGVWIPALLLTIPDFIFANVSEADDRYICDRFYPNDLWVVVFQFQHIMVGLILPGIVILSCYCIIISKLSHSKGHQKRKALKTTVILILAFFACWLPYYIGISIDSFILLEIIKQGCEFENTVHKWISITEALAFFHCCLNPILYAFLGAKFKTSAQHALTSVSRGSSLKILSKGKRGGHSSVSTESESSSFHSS
T1 sequence (P61073 whole entry): as above
T1 sequence (P61073 whole entry): as above

- increase of BRET signal ([2]; SDF-1 300 nM): about 20%
- maximal intensity of calcium signal [3]: > 140 % over basal fluorescence
Molecule: SDF-1: Stromal-cell-Derived Factor-1, the natural ligand of CXCR4 [reference compound]

- inhibition of SDF-1-induced BRET increase ([2]; SDF-1 100 nM): about 88%
B2: hz515H7 VH1 D76N VL2: humanized 515H7 Mab; variable domains VH1 D76N (SEQ ID No. 64) and VL2 (SEQ ID No. 65) (antibody, listed as Mus musculus, V domains shown)
VH: EVQLVESGGGLVQPGRSLRLSCTASGFTFTDNYMSWVRQAPGKGLEWVGFIRNKANGYTTEYAASVKGRFTISRDNSKSIAYLQMNSLKTEDTAVYYCARDVGSNYFDYWGQGTLVTVSS
VL: DIVMTQSPSSLAVSLGERATMSCKSSQSLFNSRTRKNYLAWYQQKPGQSPKLLIYWASARDSGVPARFTGSGSETYFTLTISRVQAEDLAVYYCMQSFNLRTFGQGTKVEIK

Further lines, the molecule ahead of its results:

Molecule: Maraviroc [reference compound]
- IC90 [1]: > 50 µg/mL

B1: hz515H7 VH1 VL2: humanized VH variant 1 (no back mutations) combined with variant 2 of VL (antibody, V domains shown)
VH: EVQLVESGGGLVQPGRSLRLSCTASGFTFTDNYMSWVRQAPGKGLEWVGFIRNKANGYTTEYAASVKGRFTISRDDSKSIAYLQMNSLKTEDTAVYYCARDVGSNYFDYWGQGTLVTVSS
VL: DIVMTQSPSSLAVSLGERATMSCKSSQSLFNSRTRKNYLAWYQQKPGQSPKLLIYWASARDSGVPARFTGSGSETYFTLTISRVQAEDLAVYYCMQSFNLRTFGQGTKVEIK
- cross blocking of biotinylated murine 515H7, compared to chimeric 515H7 [4]: No reduction in the activity
